From paper PMC1184076, “Modulation of p53 activity by IκBα: Evidence suggesting a common phylogeny between NF-κB and p53 transcription factors” (BMC Immunology, 2005)

Target: T1, GST-p53, purified, bacterially produced (UniProt P04637 1-393)
T1 construct: p53 tumor suppressor protein; also called p53-pGEX; purified p53; source: bacteria, from a pGEX construct, purified
Assay: pull-down; purified GST-p53 (or GST-c-Jun) incubated with purified His-IκBα in IP buffer (25 mM Hepes pH 7.5, 75 mM KCl, 2.5 mM MgCl2, 0.1 mM EDTA, 0.15% NP-40, 1 mM DTT); glutathione Sepharose beads; autoradiography of 32P-IκBα or Western blot for IκBα
Conditions: both partners purified

T1 sequence (P04637 whole entry): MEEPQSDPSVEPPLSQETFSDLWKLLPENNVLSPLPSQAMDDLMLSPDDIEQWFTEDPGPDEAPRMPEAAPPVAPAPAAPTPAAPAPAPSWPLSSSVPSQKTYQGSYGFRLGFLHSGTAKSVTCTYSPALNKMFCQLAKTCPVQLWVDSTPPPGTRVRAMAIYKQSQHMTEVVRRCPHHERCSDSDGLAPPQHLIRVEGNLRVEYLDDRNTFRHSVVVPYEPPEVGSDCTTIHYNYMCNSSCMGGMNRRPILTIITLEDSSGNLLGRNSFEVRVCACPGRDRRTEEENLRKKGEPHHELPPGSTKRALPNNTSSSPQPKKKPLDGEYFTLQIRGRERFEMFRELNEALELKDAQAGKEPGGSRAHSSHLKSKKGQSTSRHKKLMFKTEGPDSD

binding result | Binder
binds | [32P]-labeled 6xHis-tagged IκBα (His-IκBα), phosphorylated in vitro by p90rsk (natural protein, UniProt P25963 1-317, looked up, 32P-phosphate put on in vitro by p90rsk; site not stated, IκBα, wild type; also called [^32P]-labeled IκBα; purified bacterially-produced wild-type IκBα; source: bacterially produced, purified; labeled in vitro with [γ-32P]ATP and Xenopus laevis p90rsk) MFQAAERPQEWAMEGPRDGLKKERLLDDRHDSGLDSMKDEEYEQMVKELQEIRLEPQEVPRGSEPWKQQLTEDGDSFLHLAIIHEEKALTMEVIRQVKGDLAFLNFQNNLQQTPLHLAVITNQPEIAEALLGAGCDPELRDFRGNTPLHLACEQGCLASVGVLTQSCTTPHLHSILKATNYNGHTCLHLASIHGYLGIVELLVSLGADVNAQEPCNGRTALHLAVDLQNPDLVSLLLKCGADVNRVTYQGYSPYQLTWGRPSTRIQQQLGQLTLENLQMLPESEDEESYDTESEFTEFTEDELPYDDCVFGGQRLTL
binds | 6xHis-tagged IκBα (His-IκBα), purified, bacterially produced (natural protein, UniProt P25963 1-317, looked up, IκBα, wild type; also called purified IκBα protein; hexahistidine-tagged IκBα; source: bacterially produced, purified) MFQAAERPQEWAMEGPRDGLKKERLLDDRHDSGLDSMKDEEYEQMVKELQEIRLEPQEVPRGSEPWKQQLTEDGDSFLHLAIIHEEKALTMEVIRQVKGDLAFLNFQNNLQQTPLHLAVITNQPEIAEALLGAGCDPELRDFRGNTPLHLACEQGCLASVGVLTQSCTTPHLHSILKATNYNGHTCLHLASIHGYLGIVELLVSLGADVNAQEPCNGRTALHLAVDLQNPDLVSLLLKCGADVNRVTYQGYSPYQLTWGRPSTRIQQQLGQLTLENLQMLPESEDEESYDTESEFTEFTEDELPYDDCVFGGQRLTL
